Experiment [1] addresses T1, CD27 expressed on the cell surface (HT1080_CD27 cells) (human, UniProt P26842 20-260).
T1 construct: whole, on cells; also called K562_CD27
T1 sequence (looked up): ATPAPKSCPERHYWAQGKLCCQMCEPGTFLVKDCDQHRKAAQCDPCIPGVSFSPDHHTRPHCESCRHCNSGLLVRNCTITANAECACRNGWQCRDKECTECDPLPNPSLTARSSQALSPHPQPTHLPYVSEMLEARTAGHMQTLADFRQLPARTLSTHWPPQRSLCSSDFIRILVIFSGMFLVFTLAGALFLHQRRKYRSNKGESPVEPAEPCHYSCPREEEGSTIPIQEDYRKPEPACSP
Kind of experiment: cellular binding assay, HT1080_CD27 cells.

Experiment [2] addresses T2, CD27 protein (His-tagged, Sino Biological Inc. 10039-H08B1) (human, UniProt P26842 20-192).
T2 construct: bought; coated onto ELISA plates; also called human CD27; recombinant protein; not shown: His tag
T2 sequence (looked up): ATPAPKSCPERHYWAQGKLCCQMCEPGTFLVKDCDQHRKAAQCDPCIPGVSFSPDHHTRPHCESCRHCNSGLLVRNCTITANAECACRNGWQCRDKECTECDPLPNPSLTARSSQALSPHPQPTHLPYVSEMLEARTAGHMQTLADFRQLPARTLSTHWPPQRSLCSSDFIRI
Kind of experiment: ELISA on coated His-tagged CD27. On the technique in general: ELISA stands for enzyme-linked immunosorbent assay.

Experiment [3] has as its target T1, CD27 expressed on the cell surface …. In words: cell-based or functional assay.
Also: test concentration or dose not given here.

B1: P018.S.03.A.B02 (antibody, V domains shown)
VH: QSLEESGGRLVTPGTPLTLTCTASGFSLSSYDMNWVRQAPGEGLEWIGTITTNSDTYYASWAKGRFTISKTSTTVDLKITSPTTEDTATYFCARGYTTFTLWGQGTLVTVSS
VL: DPVLTQTPSSASEPVGGTVTINCQASQNIYSNLAWYQQKPGQPPKLLIYGASTLESGVPSRFSGSGSGTQFTLTISDLESDDAATYYCQCTDYDSNYVVDFGGGTEVVVK
notes: V regions on human Ig constant parts; also called AB27_42
For the molecule B1, the “Cellular binding assay [RFU]” value in experiment [1] is 308 RFU. Besides, in experiment [2], the “ELISA [abs. corr.]” value came to 3.41 abs. corr. In experiment [3], the “IL-8, cross-linked by F(ab')2 fragment [abs. corr.]” value (“IL-8, cross-linked” below) came out at 1.49 abs. corr and the “IL-8 [abs. corr.]” value was found to be 0.366 abs. corr.

B2: P018.S.03.A.G06 (antibody, V domains shown)
VH: QSLEESGGDLVKPGASLTLTCTASGFSFSRNNYMCWVRQAPGKGLESIACIHDGNSVGIYYTTWAKGRFTISKTSSTTVTLQMTSLTVADTATYFCARMSYTNDWDPIWGPGTLVTVSS
VL: DIVMTQTPASVEAAVGGTVTIDCQASENIYSLLAWYQQKPGQPPKVLISLASNLASGVPSRFKGSGSGTQFSLTISDLESADAATYYCQGYYYSSSTSYENAFGGGTEVVVS
notes: V regions on human Ig constant parts; also called AB27_59
Take B2: the “Cellular binding assay [RFU]” value in experiment [1] came out at 302 RFU. Moreover, the “ELISA [abs. corr.]” value in experiment [2] was 3.4 abs. corr. In experiment [3], the “IL-8, cross-linked” value amounted to 1.36 abs. corr and the “IL-8 [abs. corr.]” value amounted to 0.56 abs. corr.

B3: P018.S.10.A.H01 (antibody, V domains shown)
VH: QEQLEESGGDLVKPGASLTLTCTASGFSFSSDYDMCWVSQAPGKGLEWIACIIGGSSDSTWYASWAKGRFTISKTSSTTVTLQVTGLTAADTATYFCARNVGFSYYDLWGPGTLVTVSS
VL: AQVLTQTPSPVSAAVGGTVTINCQASQSLYNNKNLAWYQQKPGQPPKLLIYYASTLASGVSSRFKGSGSGTQFTLTISGVQSDDAATYYCQGEFSCSSGDCFAFGGGTEVVVK
notes: V regions on human Ig constant parts; also called AB27_184
Regarding B3, the “Cellular binding assay [RFU]” value in experiment [1] was determined as 443 RFU. The “ELISA [abs. corr.]” value in experiment [2] came out at 3.42 abs. corr. Besides, in experiment [3], the “IL-8, cross-linked” value was found to be 2.29 abs. corr and the “IL-8 [abs. corr.]” value turned out to be 0.412 abs. corr.

B4: P018.S.01.A.F02 (antibody, V domains shown)
VH: QQQLVESGGGLVRPGASLTLTCKASGFSFSSGYYVCWVRQAPGKGLEWIACIFAGSGGGAGYATWAKGRFTISKTSSTTVTLQMTSLTAADTATYFCARPLSGYAYGMDLWGPGTLVTVSL
VL: DVVMTQTPASVSEPVEGTVTIKCQASQTISNYLAWYQQKPGQPPKLLIYGASTLESGVSSRFKGSGSGTQFTLTIYDLESADAATYYCQCTYDGSSDVGGAFGGGTEVVVK
notes: V regions on human Ig constant parts; also called AB27_19
Take B4: the “Cellular binding assay [RFU]” value in experiment [1] is 326 RFU. The “ELISA [abs. corr.]” value in experiment [2] stood at 3.42 abs. corr. In experiment [3], the “IL-8, cross-linked” value is 2.05 abs. corr and the “IL-8 [abs. corr.]” value turned out to be 0.495 abs. corr.

B5: P018.S.10.A.G05 (antibody, V domains shown)
VH: QSVEESGGRLVTPGTPLTLTCTVSGFSLNNAHMCWVRQAPGKGLEWIGIIGASGSTYYASWAKGRFTISKTSTTVDLKMTSLTTEDTATYFCGRTDVGYTTANLWGQGTLVTVSS
VL: DVVMTQTPASVSAAVGGTVTIKCQASQTISSYLSWYQQKPGQPPKRLIYSASTLASGVSSRFKGSGSGTQFTLTISDLESADAATYYCQAYDTTSGTDLWAFGGGTEVVVK
notes: V regions on human Ig constant parts; also called AB27_183
With B5, the “Cellular binding assay [RFU]” value in experiment [1] turned out to be 408 RFU. Moreover, the “ELISA [abs. corr.]” value in experiment [2] was determined as 3.42 abs. corr. In experiment [3], the “IL-8, cross-linked” value is 1.25 abs. corr and the “IL-8 [abs. corr.]” value came to 0.137 abs. corr.

B6: P018.S.04.A.E04 (antibody, V domains shown)
VH: QSVEESGGRLVTPGTPLTLTCTVSGFSLSTYAMNWIRQAPGKGLEWIGTITTGGSTFFASWAKGRFTISKTSTTVDLKITSPTTEDTATYFCARGGDTGYGFSYFDLWGQGTLVTVSS
VL: AVVLTQTPASVSEPVGGTVTIKCQASENIYSSLAWYQQKPGQPPKLLIYDASTLASGVPSRFKGSGSGTEYTLTISGVQSDDAATYYCQQGYSTSNLVNPFGGGTELVVN
notes: V regions on human Ig constant parts; also called AB27_75
With B6, the “Cellular binding assay [RFU]” value in experiment [1] came to 283 RFU. For the same molecule, in experiment [2], the “ELISA [abs. corr.]” value came out at 3.38 abs. corr. In addition, in experiment [3], the “IL-8, cross-linked” value worked out at 1.34 abs. corr and the “IL-8 [abs. corr.]” value came to 0.641 abs. corr.

B7: P018.S.02.A.G01 (antibody, V domains shown)
VH: QSLEESGGRLVTPGTPLTLTCTVSGIDLSSNAMNWVRQAPGKGLEWIGIIYTSGSTYYASWVKGRFTISRTSTTVDLEMTSLTTEDTATYFCARGVTIDWFDLWGQGTLVTVSS
VL: AAVLTQTPSSVSAAVGGTVTINCQSSPSVYSNYLSWFQQKPGQPPKLLIYGASTLTSGVPSRFKGSGSGTQFTLTINDVQSDDAATYWCLGGYGDINDTTFGGGTEVVVK
notes: V regions on human Ig constant parts; also called AB27_37
In the case of B7, in experiment [1], the “Cellular binding assay [RFU]” value is 332 RFU. In addition, in experiment [2], the “ELISA [abs. corr.]” value worked out at 3.41 abs. corr. For the same molecule, in experiment [3], the “IL-8, cross-linked” value came to 1.52 abs. corr and the “IL-8 [abs. corr.]” value was 0.127 abs. corr.

B8: P018.S.04.A.D02 (antibody, V domains shown)
VH: QSLEESGGRLVTPGTPLTLTCTASGFSLSTYAMGWVRQAPGEGLEWIGNINTDSGDTWYARWAKGRFTISTTSSTTVDLKITSPTIEDTATYFCARNPGDDVNLWGQGTLVTVSS
VL: AQVLTQTPSPVSAAVGDTVTINCQASQSVYNNNDLAWFQQKPGQPPKLLIYRTSILASGVPSRFKGSGSGTQFTLTISDLESDDAATYYCQGYYSGVIYVFGGGTEVVVK
notes: V regions on human Ig constant parts; also called AB27_71
Consider B8, for which the “Cellular binding assay [RFU]” value in experiment [1] came to 335 RFU. Besides, in experiment [2], the “ELISA [abs. corr.]” value stood at 3.42 abs. corr. Further, in experiment [3], the “IL-8, cross-linked” value is 1.35 abs. corr and the “IL-8 [abs. corr.]” value is 0.294 abs. corr.

B9: P018.S.07.A.B05 (antibody, V domains shown)
VH: QSLEESGGDLVKPGASLTLTCTASEFSFSNNYYICWVRQAPGKGLEWIACIYVHSGTTDYATWAKGRFTISRTSSTTVTLQMTSLTVADTATYFCARGRSGYYADAFDTWGPGTLVTVSS
VL: ALDMTQTPSPVSAAVGGTVTINCQASQSVYNNNNLAWYQQKPGQPPKLLIYLASNLASGVPSRFKGSGSGTQFTLTISEIQSDDAATYYCQGTDSSSGWEHAFGGGTEVVVK
notes: V regions on human Ig constant parts; also called AB27_117
With B9, the “Cellular binding assay [RFU]” value in experiment [1] worked out at 295 RFU. Besides, the “ELISA [abs. corr.]” value in experiment [2] turned out to be 3.42 abs. corr. For the same molecule, in experiment [3], the “IL-8, cross-linked” value came out at 1.41 abs. corr and the “IL-8 [abs. corr.]” value was 0.203 abs. corr.

B10: P018.S.03.A.G02 (antibody, V domains shown)
VH: QSLEESGGDLVKPGASLTLTCTASGFSFSSGYDMCWVRQAPGKGLEWIACIYAGSNNNTYYASWAKGRFTISKTSSTTVTLQVASLTAADTATYFCARAAGGYADYAYVMGDYFNFWGPGTLVTVSS
VL: AYDMTQTPASVEVAVGGTVTIKCQASEDIYSILAWYQQKPGQRPKGLIYSASTLDSGVPLRFSGSGSGTEFTLTISGVQSDDAATYYCQQGYSSSNVDNVFGGGTEVVVK
notes: V regions on human Ig constant parts; also called AB27_56
With B10, in experiment [1], the “Cellular binding assay [RFU]” value was determined as 275 RFU. In addition, the “ELISA [abs. corr.]” value in experiment [2] stood at 3.44 abs. corr. Also, in experiment [3], the “IL-8, cross-linked” value amounted to 1.28 abs. corr and the “IL-8 [abs. corr.]” value turned out to be 0.412 abs. corr.

B11: P018.S.08.A.D01 (antibody, V domains shown)
VH: QSVEESGGRLVMPGTPLTLTCTVSGFSLSTYVMGWVRQAPGKGLECIGVIYGGGTIWYASWAKGRFTISKTSTTMDLQITSPTTEDTATYFCARDGSSSGDPGFNLWGQGTLVTVSS
VL: DIVMTQTPASVSAAVGGTVTINCQASQSISNWVAWYQQKPGQPPKRLIYKASTLASGVPSRFKGSGSGTEFTLTISDLESADAATYYCQSTGSTAYGRAFGGGTEVVVR
notes: V regions on human Ig constant parts; also called AB27_137
For B11, the “Cellular binding assay [RFU]” value in experiment [1] stood at 394 RFU. In experiment [2], the “ELISA [abs. corr.]” value amounted to 3.42 abs. corr. Besides, in experiment [3], the “IL-8, cross-linked” value came to 1.12 abs. corr and the “IL-8 [abs. corr.]” value is -0.001 abs. corr.

Source of the values: patent US20210253725A1 (BIONTECH, published 2021).
